In the DeepSol protein solubility set:

Test: soluble on expression in E. coli; label from the status in PepcDB or PDB records

Soluble on expression in E. coli, soluble:
SQIPASEQETLVRPKPLLLKLLKSVGAQKDTYTMKEVLFYLGQYIMTKRLYDEKQQHIVYCSNDLLGDLFGVPSFSVKEHRKIYTMIYRNLVVVNQQESSDSGTSVSENHHHHHH
MLRHSPSLWELVEEHVPLRERREVKRILGEAAVDLSLELRAEVAMLRALLQEARSSQAPSSRPISDPSSLLAPPPLLKDLLRQELRQLLQGLRHKAICEGRDQAQAWVQYSPRVLHFALEEPRCDLPEQEIFQMRGGGPSSGHRDLSIIKDQLNVSNIDQVARHLRGLLEEECHTLEREILILQRCLEEEYLRPCHPSEAALEPTLAELKEQKKAMEQELQASVGPSCVSPNHRQRPLGSSTQGLRPPLPLCGVAPLQCCLPAPPLEPYLRPRGQSATHRWGRQLQCSPREGPASTPMSSAAPQAPA
MGSSHHHHHHMKKARMTVDKDYKIAEIDKRIYGSFVEHLGRAVYDGLYQPGNSKSDEDGFRKDVIELVKELNVPIIRYPGGNFVSNYFWEDGVGPVEDRPRRLDLAWKSIEPNQVGINEFAKWCKKVNAEIMMAVNLGTRGISDACNLLEYCNHPGGSKYSDMRIKHGVKEPHNIKVWCLGNAMDGPWQVGHKTMDEYGRIAEETARAMKMIDPSIELVACGSSSKDMPTFPQWEATVLDYAYDYVDYISLHQYYGNKENDTADFLAKSDDLDDFIRSVIATCDYIKAKKRSKKDIYLSFDEWNVWYHSNNEDANIMQNEPWRIAPPLLEDIYTFEDALLVGLMLITLMKHADRIKIACLAQLINVIAPIVTERNGGAAWRQTIFYPFMHASKYGRGIVLQPVINSPLHDTSKHEDVTDIESVAIYNEEKEEVTIFAVNRNIHEDIVLVSDVRGMKDYRLLEHIVLEHQDLKIRNSVNGEEVYPKNSDKSSFDDGILTSMLRRASWNVIRIGK
MSDALLAPLNEAQRQAVLHFEGPALVVAGAGSGKTRTVVHRVAYLVARRGVFPSEILAVTFTNKAAEEMRERLRGLVPGAGEVWVSTFHAAALRILRVYGERVGLRPGFVVYDEDDQTALLKEVLKELALSARPGPIKALLDRAKNRGVGLKALLGELPEYYAGLSRGRLGDVLVRYQEALKAQGALDFGDILLYALRLLEEDEEVLRLVRKRARFIHVDEYQDTSPVQYRFTRLLAGEEANLMAVGDPDQGIYSFRAADIKNILDFTRDYPEARVYRLEENYRSTEAILRFANAVIVKNALRLEKALRPVKRGGEPVRLYRAEDAREEARFVAEEIARLGPPWDRYAVLYRTNAQSRLLEQALAGRGIPARVVGGVGFFERAEVKDLLAYARLALNPLDAVSLKRVLNTPPRGIGPATWARVQLLAQEKGLPPWEALKEAARTFSRPEPLRHFVALVEELQDLVFGPAEAFFRHLLEATDYPAYLREAYPEDAEDRLENVEELLRAAKEAEDLQDFLDRVALTAKAEEPAEAEGRVALMTLHNAKGLEFPVVFLVGVEEGLLPHRNSVSTLEGLEEERRLFYVGITRAQERLYLSHAEEREVYGRREPARPSRFLEEVEEGLYEVYDPYRRPPSPPPHRPRPGAFRGGERVVHPRFGPGTVVAAQGDEVTVHFEGFGLKRLSLKYAELKPA
MKIGDISIHYLNGGNTKMDGGAMFGVVPKPLWSKQYNANERNQINLPTHPILIQTAQYNLIIDAGIGNGKLSEKQLRNFGVDEESHIIADLANYNLTPKDIDYVLMTHMHFDHAAGLTDQAGHAIFENAIHVVQQDEWHEFIAPNIRSKSTYWDKNKGDYSNKLILFEKHFEPVPGIKMQHSGGHSFGHTIITIESQGDKAVHMGDIFPTTAHKNPLWVTAYDDYPMQSIREKERMIPYFIQQQYWFLFYHDENYFAVKYSDDGENIDAYILRETLVDNNLEHHHHHH
MSLHRFQYKAYRRSFAGTFANARESFAKREGLMIRLEDRDGRVGFGEVAPIVSFGSESFASAFSVAESLGEQVAFERVLPELAGYPCLRWACESALDMIAREGVWEELEKPWPICGLVADLGDLASVEEKLGMHYQCLKFKIGKKSLIEELKALDRVIELSEGKVQIRLDANGTLDMRTAIGWLERVAGLPVEFIEQPLPVGAEVEMRRLSADFPTLLALDESVDSVDDLKRWRDQQWPGLYVIKPSLSGSLLALGEELSGGAGDCVFSSSLETKIGESNAIGFAIRQSGHGRALGFGVERLFADRNVGLELGPFLQKGGLASSDDLESLWNLTEGHHHHHH
MSLSNIHHLERSLRKLRLTRVGAEWHALEKRALAEGWTPSRYLLTLCNEELLWRESEKLRRYKKEARLPVAKTLSEYDFSQVPELNGAQFRQLCETTDWVDAGENVLLFGASGLGKSHLAAAIVDGVVGQGYRARFYSAGELLQELRKARAQLKLNELLLKLDRYRVIVVDDLGYVKRDSAETGVLFELIAHRYERGSLVITSNHPFSMWGSIFVDETMAVAAADRLIHHGYMFELKGESYRKKTAKAVTSATEGHHHHHH
MSSLFVVGIGPGSNDLMTPQASLAIERSEYVIGFSLYVSFIKEKFPNKIYISNGMQGEIERAKKAIELARSGHNVSIISSGDAGIYGIAGAVFEILSTLEDNMPEVSVVPGIS

Soluble on expression in E. coli, not soluble:
MGSDKIHHHHHHIRSATACSSTDNVVSMKLTEHIGRLTVMGLMLPKHRPFFKERMGMNVQKEGVGEPTMAFTPTQRLHLGAEAEVWKGEWFGKAAVRKQRRPRSWRHPNLDHRLGVRRMISEARLLIRTRKAGLSVPSVWDLDYEGGQLIIEHLEGRPLIDVLNDPATEKEVAKTTLHRVGHSVRRLHREATTHGDLSSNNILIEGEHVHLIDFGLASIEYDVERFGIDLHVLDEILGASHPQWEGAIDWVIEGYLSAEEELGPAPALQGGSVPSAKEVHTRLEDIRTRVRYH
GPGSMHTKVLAPLAGNRIQAAHKFPQVRLQPTLHRLMTRRRQCNLPLRLFHPSSVDFAKHELEAGRIVEVRRDDNSLVALGFYEPHLERVDVFDMTANLAAMLPAISEDFFMARVHEAWERRRRILPQTQSNTYRVVNGYADSLPSLFVDVFSESFVRVVATSFGAERLVTPLLDFLSRRGAEDVLLDTPTLGDAARVSIVTPTISLPQMYVESGVSHLWLRPDMRMPSTDNLFLINPAHRRTRRMMRDVGKGKRVLTIYDRSGSAAMNAVMTAKHVTVVHREETSLEWARTNLICNHSASVFKTCETVCCDPAELRVRHQQDVVYVECHPKFLSTSNQWAELVRSLANNKVIGVGTMLIVAQEEAPLGVHDLLPRRKVFYEGDESKANQDCPMKRRPLADVLRNALEKCHLRLKFLRAFSVACDHPLLPEAESASFSLVYLVEGPALEQVFRVSASSHRTECTDEAA
MKIVIAPDSFKESLSADKCCQAIKAGFSTVFPDARYVCLPIADGGEGTVDAMVAATGGKRVSVDVSGPMGEKVNGFYGLTGDGKTAIIEMAAASGLMLVAPEARNPLLASSFGTGELIRHALDAGIRHIILGIGGSATVDGGMGVAQALGVRFLDAQGTPLGAGGGNLSRLASIDLQGCDPRISECRIEVACDVDNPLVGPRGAAAVFGPQKGATPEMVETLENGLRNYARVLHALTGRDMSQIPGGGAAGGMGIAAIVFLEAEMKPGIEIVMQAVKLEEAVKEASLVITGEGRIDSQTAGGKAPIGVASVAKRHHVPVIGIAGVLGDGVEVVHRHGIDAVFSILPRLAPLPEVLANGEQNLYHSACNIARVIKLGQDIGTR
QRKGVLIILDGLGDRPIKELGGKTPLEYANTPTMDYLAKIGILGQQDPIKPGQPAGSDTAHLSIFGYDPYKSYRGRGYFEALGVGLELDEDDLAFRVNFATLENGVITDRRAGRISTEEAHELAKAIQENVDIPVDFIFKGATGHRAVLVLKGMAEGYKVGENDPHEAGKPPHPFTWEDEASKKVAEILEEFVKKAHEVLDKHPINEKRRKEGKPVANYLLIRGAGTYPNIPMKFTEQWKVKAAAVVAVALVKGVAKAIGFDVYTPKGATGEYNTDEMAKARKAVELLKDYDFVFIHFKPTDAAGHDNNPKLKAELIERADRMIKYIVDHVDLEDVVIAITGDHSTPCEVMNHSGDPVPLLIAGGGVRADYTEKFGEREAMRGGLGRIRGHDIVPIMMDLMN
MHSVARENLQAYLHSYKLSSNEPGIKLMHNSQRDDQHRKDVEHFAALRALQHSKRKHVAFAVQAMRDYDGSLDEKSPLKDHTISFNTNDFIHIHTKFNSDWWIGRIVRSHSEFGFVPTARRLANYMVSDEDPPVKHNTSDHQDRSIWEPKCPYKVVPSSRPIVLLGPTLQHSRLTQLLHLALREEILKHFGKNMKYVKSDIGSGQQSGDRKGARWLRGLRDYDRGQDENQEVELIMRMTSKLHLLLVDSPHIHTPDDVQHLPLSPIFFLIRVSDNKILAKLLRNTGTTRMAAEIEVANVLKTMNDDRVGGHDDEQLIARGFEMVIEENGLREATRRIISYLEKYIHALHYHHKDDEI
MGSDKIHHHHHHMILCCGEALIDMLPRETTLGEKGFSPYAGGAVFNTGIALGRLGVASGFFTGLSDDMMGDILRDTLRASHVDFSYCATLSRPTTIAFVKLVDGHATYAFYDENTAGRMITEADLPALGEDCEALHFGAISLIPEPCGSTYEALLNREHKTRVISLDPNIRPGFIKDKAAHMARIRRMAALSDIVKFSDEDLAWFGLDGDEDTLARHWLHHGAKLVVVTRGADGAVGYTADHKVEVPSEKVTVVDTVGAGDTFDAGVLASLKMQNLLTKQQVAKLTEEQIAKALALGSKAAAVTVSRAGANPPFAHEIGL
DEMVRFNPKKMSLKKEQVIKIIKIGAPAGLQGVVFSVSNVCIQSAINGFGTKAIAGSSAALNYEYFTYYVINAFNQTTVTFTSQNYGAKKLERCKKA
MDGELKNLKCNISQLAAITGLHRQTVVSRLSGVPLAPGSNEKNKLYLLTDVIRVLMEAPVSQAAEHQDPNKMTPKERKDWFDSEKGRLWLEKEMKQVVPLPEVRQQMAAIVKAITQVLEVWPDKLERDKGWSADQLNEAQDVVDEVRILLVKAIQETADDDGE
MTATPVLALSEFQGAPAPIAGEQNAAPGDEAEEAAPEERTPLEIPMPDPLVDRTAVELKDDEIAAPDVVEPVEVLTDVSKIPVPVARMRELIVEAAASGDIERLRPLLGKGPTQTQVTATAGEDDPIAALKSLSGDQDGIEILAILLDVMSTGFVLADKGTPEEAYVWPYFAEKPLSSLTAPEKVDLFRLVTAGDFAGMEEFGTYNFYRVGITPDGKWKFFVAGD
MSQIMYNYPAMLGHAGDMAGYAGTLQSLGAEIAVEQAALQSAWQGDTGITYQAWQAQWNQAMEDLVRAYHAMSSTHEANTMAMMARDTAEAAKWGG
KGFFALSSCTLGLGLILTACGARGKFDQVDDGVIKLATSIQNKDSIAALNTIYKKYKERHPGSYPVQNFQVPGGYSGLRNDIRTRLSAKDGNNFYNI
MASYLPSEWQDDLKMNGLMSVMKERHVNKVDYDRKLRFWTDAIYGSCIGEKNATFNLLELKKRFRRNDRVPASLDVILDHLKKKGDVITIGEWRDRHSSWVGWGFSKTKGWMFGASSDSEQLLHLPTIKKLGQEILDIYNEELRSEIDCTGEVVTYNEMFDRASNIISKIETFDIVLEHLNDIGELTVGTTRNGEKVLKFKDNGSEDPVKFTEADASVVDIRKAMNKLDREIQQLEQKVKKYDEQCRACLRTGDKGRAQNFLRQRKRAEKDIADKDVQYQKLLTMLHQISSAKNNKDVLQAYKSGTAAFKATLARQGLSPDKIHETMDDVVNSMDEYKEIEEAISSPFVNANGFNDADLEQELEDLISDNKKNESVHLPEAPTNRFGLFDKEVTPEEDQLEKRLARLRQAI
